Laboratory results reported in the DeepSol protein solubility set.

Assay: soluble on expression in E. coli; label from the status in PepcDB or PDB records

Sequence | soluble on expression in E. coli
MAGDPMNIQDAQPSTLREMIKQGKLTGHTSGMAKGYVQANVVILPSKCAYDFLLFCFRNPKTCPLLDVSEKGNKSFTKYGVTADISTEVAAYRIYQYGELIETRANVDDLYTDDMVSFLIGCSFTFEHALLEAGIPIRHLEENHNVPMYVTNIPANPSGQFKGNITVSMRPMTMTQAIKATEITTRFKNVHGTPIHIGNPTEIGITDLALPDFGEPVTINENEVPVFWGCGVTPQSVALDAKPDLMITHAPGHMFITDIPDSQLSDLEHHHHHH | soluble
MAGDPNSMNLKQSIEEIINQPEYEPMSVSDFQDALGLSSADSFRDLIKVLVELEQSGLIERTKTDRYQKKHSSKGHSKLIKGTLSQNKKGFAFLRPEDEDMEDIFIPPTKINRALDGDTVIVEIHQSKGEHKGKIEGEVKSIEKHSVTQVVGTYSEARHFGFVIPDDKRIMQDIFIPKGQSLGAVDGHKVLVQITKYADGSDNPEGHISAILGHKNDPGVDILSIIYQHGIEIEFPDEVLQEAEAVPDHIENTEIKGRHDLRDELTITIDGADAKDLDDAISVKKLANGNTQLTVSIADVSYYVTEGSALDKEAYDRATSVYLVDRVIPMIPHRLSNGICSLNPNVDRLTLSCRMEIDASGRVVKHEIFDSVIHSDYRMTYDAVNQIITEKDPNIREQYKEITPMLDLAQDLSNRLIQMRKRRGEIDFDINEAKVLVNEDGIPTDVQLRQRGEGERLIESFMLIANETVAEHFSKLDVPFIYRVHEQPKSDRLRQFFDFITNFGIMIKGTGEDIHPTTLQKVQEEVEGRPEQMVISTMMLRSMQQAHYDDVNLGHFGLSAEYYTHFTSPIRRYPDLTVHRLIRKYLIEKSMDNKEVKRWEDKLPELAEHTSKRERRAIEAERDTDELKKAEYMIQHIGDEFEGIVSSVANFGMFIELPNTIEGMVHIANMTDDYYRFEERQMALIGERQAKVFRIGDTVKVKVTHVDVDERLIDFQIVGMPLPKNDRSQRPARGKTIQAKTRGKSLDKSKSDDKGRKKKGSQRKGKNERKNDKSGNSKHKPFYKDKSVKKKARRKKKLEHHHHHH | soluble
MAGHSMREHEVYSKLRAPPSSRMILRLDGRGFHRLTESLDFDRPYDEAFRDLMIRTCLDLMEEFSPSLIYTFSDEINVLLDSVPFAGRVEKLDSVFSGFASSSFTRGALEAGFSPVKPVSFDCRVIPISSDIVPEYFRSRQDESWRNCLNSYAYWTLRREVGARRAAERLRGLKSDSLHDLLFERGVNISRVPAWQRRGVGVYRVPHRVRGYNPIRDEEVSAVRMRVKVDLELPLFTDEFFEGLMRLEHHHHHH | not soluble
MAGNAPLQQVQKKWAECQYSTPDGDEKEQCFHRAIAKTSIYLDREPGNPELTVWLAINKASLAGAQGGFGALSLAKEAKSLLEGVIATSPQTLDGSAYTSLGSLYYKVPGWPIGFGDDDKAEEMLKKALEINPKGIDPNYFYGDFLAEEGRDKEAKVYLTRAMQASPRPDRPLADKGRKLEIEATLGRLKLEHHHHHH | soluble
MAGQEHHYAVQVKWTGNRGKGTSGYRDYERDYTISTAGKADITGSSDPAFRGDPSRWNPEDLLVASLSACHKLWYLHFCSVNGIIVEDYVDNAEGTLVMEKDGAGQFSEVVLKPVITISKGDPARADELHHDAHDKCFIARSVNFPIRVQGTVKVV | not soluble
MAGQLPRRIIKETQRLLADPVPGISANPDESNARYFHVMIAGPDDSPFAGGVFKLELFLPEEYPMAAPKVRFMTKIYHPNIDKLGRICLDILKDKWSPALQIRTVLLSIQALLSAPNPEDPLATDVAEQWKTNEAEAIKTAKQWTMNYAQA | not soluble
MAGTSFLSDLLSGVTERGRALLFSGSKARDRVVDTDIETLCEMLLSSRGEASGMAIAAEILDRWSRFNAAEAVQFLHMLSDRFGAEAAALDKAIDAYRTDKSPMAVIALHNAAEPRRQELLRRLNLAPNGTQKLVRMRERLLETKEDRADLGAVDTDFAHLFSSWFNRGFLTLQPIDWTTPAHILEKIIKYEAVHEIAGWEELRRRLAPADRRCFAFFHPRLRDDPLVFVEVALTRSIPSAIADVLDESRDHIGADTATTAVFYSISNCQDGLRGISFGNFLIKQVVEDLRRDLPGLKEFVTLSPVPGFARWISKIRDPKSGFPLSPEDRNTLVLLDDPTWPEDKARADAVERILLPLAARYFITERTPDNRPVDPVARFHLGNGARLERLNFLGDRSVKAMRQAHGLMVNYLYKLEDIETNHEALAQRGEVAASPAVKALQGKIEPILPEKPKLEHHHHHH | soluble
MAHHHHHHHRSPTRVNDGVDADEVTFVNRFTVHGAPAEFESVFARTAAFFARQPGFVRHTLLRERDKDNSYVNIAVWTDHDAFRRALAQPGFLPHATALRALSTSEHGLFTARQTLPEGGDTTGSGHR | soluble
MAHHHHHHMAAACGCRSLLSRDMPRRFPMCVASGTMCRRLCDCRMEGEERRELRERRCQESRWASCRRAHCPPSPAPPCRAPSITPQHRSRRHQHTARQRMPPPSRVRPEGTRPLLRSEESHRVAQRRAQNLLADSAHDTGQWTLSVCVVEDTAVESLLSSGWTVG | not soluble
MAHHHHHHMAAMLRLTFALRLSSKQLSHGPLATHTRKQSFRQSKTALQVSRLRSQTQRANFNLQQELNRDFGARQYAFAQGRRSMQRAAEDLMYDRAYRAERHRGRAGEVYRTTKDRAAEVATARQLLQMQESTRRLMKKGRTQRVEAFRAQKQWNR | not soluble
MAHHHHHHMAKNDIWTPLESNPDSLYLYSCKLGQSKLKFVDIYGFNNDLLDMIPQPVQAVIFLYPVNDNIVSENNTNDKHNLKENFDNVWFIKQVKIITLCNMNNILPILYVCFNSIELKNNKSIENLHHEFCGQVENRDDILDVDTHFIVFVQIEGKIIELDGRKDHPTVHCFTNGDNFLYDTGKIIQDKFIEKCKDDLRFSALAVIPNDNFDII | soluble
MAHHHHHHMALLQRVAQVMQEVAPLSLADHSWDNVGVLLESPAPNKSNAIMLTIDLTPEVMEECLEKNVEVILAYHPPLFRPVKRLTLQDPKQRIILQAASAGMSIYAPHTSLDAAEGGINDWLASLVAGDGAYTASPIQPTSSYAPNAAEATKATGMGRLVKLKEEVEFCSMVGSLKQQLGLATVRVALPDSWEPSHKVSSVALCAGSGTSVFRLLRLPVHVLLSGEMSHHDVLAATAAGQAVILCEHTNTERGFLKAVLQRTLQAKLEGTTVLVSDKDSDPLTAW | soluble
MAHHHHHHMALPRGMHLLLKIYLQKCRLRWLREALNCIRGMVSMRLVMASMGSTPVERHKGEVAPGAEGEDTHFWLDGSFAEAEEALRQFFEMIKFPLPQRFSFAEEIRRDMKKRYPHCGEEALKSEEDITVVDAAALFKCVDGYIAFLSTRSDVGIGNAE | not soluble
MAHHHHHHMARSLQDPRLSFYCEQYDHIAHRMNHYVLQFYFEDRTVEIREVTKNRLHLKRAHFPHLNRDDFKVGSSLSLLGGVIKLTAYADEVTRELCGERGEVTAVMFGEQLLPQLGRCLAVLTEECGFVALEMQMAWLPVETAAAYGVPPDLVEGRIVVVKCANTNALQRGIDFMARMPGARAAESVEEVGRWEQIVEKAKEQPVAILGDPNSTVVIIKPHALQKLAGGVIVQQLIDAGLEISGISLTNMTSQQANELLKPYKGVLPDFPDTMRSLMGTVWVLQFVSLDEGVDVVSVAREVCGPFDPVIAKELRPTSIRARFGVDRAHNAVHCCDLHEEGPLYSNFFFRPEDVDE | not soluble
MAHHHHHHMASEEPLNEIPGECPTPGDLGHAGWDVLHTAGAVYPYKPSPLQQEAFRSFLYSWSHVYACSHCSYHMRRYLKRNPPVVTDKLALNRYLCEFHNTVNKNIAKPVYNCDPMVVLRRWHPTFPDMEDQPTIEEQIAEQRRLEQAEAQKQKEKELQQKQVQTSSLGDMKASRERLVGRWRSEKSESHEYANNNPSSVGAFATGWSASSRQHENAGDAAAKSAPAPLAESREKRWWIFGKNGSGDKNAGFSSTTGTPSKVNSSGGGSNSGGMNGSLDDDEASVMAILKRLKACMVYCPDKDEKSNSA | not soluble
MAHHHHHHMASVPFTEEDLHELYTWVDEIPISRQKRNIARDFADGCSVAEILKFFFPKLVDLHNYVPAMSHAKKLDNWNTLNAKVLRKLYFEVPPEEVEDIVAAVPGAIERFLRALRVKVAQIKARRDEMLRMGEIQAHVNAHHVDPSPSQPQPREGGHVRDGGASAATAHRGSGRPSSPAAPAGPVASSRGSSSAGPQAPPRQTQPQRQPTPPLVNEAASLTQALREKDYTIQELRETVAILSEKIVKLEELVRVKDEKLNQYRQKVGRVPA | soluble
MAHHHHHHMASYQYFSYIDLYKVNNVNLDPFTEVFNDKFYLRYIYKWPHMNIITKEIDDHTSGYILGKEEGFGQDYHGHVTALSIEEDSRRTGKGVDLMTEFEKITQIIHKGNFVDLFVRVSNNPAINMYKKLGYVINEEINNYYCGNESALDMRKYLDITNS | soluble
MAHHHHHHMAWTVHEDEYRTEGYDNLEEILQYVVHTEESVQQSKPTVKYTKSSQVFATPSPLTAAELSSPIKHQLTNTVPWQPQSHTPTNSSFHSLGIPYTSAQSPQQRRCNNRFNGSYSGQCDRKPKIMSSSETCILSPGARKRGMGTGQMDHMMATELNEMPMPELITQEVLASKDMMVGGGYSDWSGSGSKYFQSGALTADSLRGRVYETAKDQHGCRYLQRWLDTNCDPEALQVMMNEIIPHVGELMTDQYANFLIQKLFDIMPDDVRYKVAIVAAPQICMISLTPHGTFSVQKMIETISTREEMEIISEALCKDVVRLVKDAHGNHVIQKVLQRFDFDDKEYIYRAVATDCVSIAKNKQGCCVLQRCLEHASPRQKAALVDQVLACCLQIVQDPFGNYVLQYVLEEHDSKINDTIALAFLPHLVQLSMNKFSSNVMEKVLRGASGPVQVMYMEEMCNPEIISHLIQDDYGNYVLQTALTINAPVQAAQLVNVIRPFMPLIRNAPYAKKMEGKMENVARKVECNHFHAPRDCEVDARQGSSGGSPHGKFDRSPNHGRHYVGGTDQQQPYNHPT | not soluble
MAHHHHHHMCADGVDKVPDETDNRETNEKKRPKRKRRYIDIDKMNFDFEEEDFASSSNEELVRRNYVNEEEYTGGYANGYTNEHMNGLPYQKDINMNSEVIRGLLEPPPIPFNDTFQKYNREISDVYVKQKKKSSGTLNIFLESQLLCIDEGAFEKENNFINNHFDNFIMRKLNVVNTTNMQDTTNQNKDLQELLKYLMSWYFSGFYSGRVSMLKELHGE | soluble
MAHHHHHHMCLSTCLLYLKQIREDSQYVIISRIDHKTCYKCISFCNLKYFVVDMIYKNEELYTDLEGIEKLLEEYKEKICCVMSATSVYAPRNSDDIIKIAHICKKYNTPHIINNAFGLQCTYICKEIQKCFESQGRVDFVVQSCDKNFLVPVNGGIIFSSNREQMKLLKKSYPGRTPVNAYLDLFITLLEMGKDKIMNLRKERVDNFNWLKEKIQLLCLKYNLELIKTSKNFISMAINLNHMYTHCNTDNPKVINMLGSMLFYRNVTGHRVICSPLLNRNYLLKKAREKYMNMLENKKGNDAMMITSNESNEENVKRDLSKKEADIYDNMYSNGFDEIKSVENDMLQNKSNIIKAYEKQIEEEFDKLNEPNTIVIGNHKFKNFGSSYNSYPISYIAFSCVVGIERPELENFVSKLDNAIDYFIKFFKKKKEEELK | not soluble
MAHHHHHHMCVKCLFLARSEMAIEESACNDDSQAVTEATSERTVNSATVFRYPFNTMDLGWLVGYIDAFLVKSERWAAAMRLTTCFMTFTVLHEDPLMEDATFQLHKTMLDRSIKKSWPRRNRDLSNTFDAAYHVFETICIVSKYPNLDPAGKAGILRMSEKLIQGMEKPMDNVVIKIDLKKKSETLHATLARLQALGRAPESLSAFDALMASLKMVFFCYVASLGINNMMLDANLNKMDSYVCCEGCPCHAKLRTTYTLFIRDVEKTKVIDCLLIMAVKEDDAFLSKLAEGLFTQFDCRSPFLEKPVRRIQNGALFMVRIALFDAFRHVKALLVDLRASPASLAPQIDNVVLALYIARREMRGMKGLNEHLPLVNKALATADSIYSRLGTENASQELRTLKDYITKIFFLVSAPEFHLAVHSKDPLVGKGAKLCCGNPDCPGKVKEMLKCSGCRVTFYCSVTCQRDDWKTHRFLCKEMGCRKAAPAPIKMAECSTETLKPAAFHG | not soluble
